Data as given in publication PMC2553180.

Experiments:
[1] = target: previously unrecognized receptor on the RBC (receptor for PfRH5) (human (endogenous in erythrocytes)); experiment: other fluorescence titration; competition: 2 µM rhodamine-rRH5 with 25 µl packed RBC ghosts in PBS and increasing unlabeled rRH5 (0.1 to 400 µM), 2 h at RT, bound labeled rRH5 by spectrofluorimetry
[2] = target: previously unrecognized receptor on the RBC (receptor for PfRH5) (human (endogenous in erythrocytes)); experiment: other fluorescence titration; […] fit for identical independent binding sites

Substance | IC50 [1] [µM] | Kd [2] [µM]
recombinant PfRH5 protein (rRH5), 143-aa fragment Asn-31 to Val-174, GST fusion (domain or fragment) | 50 | 
rhodamine-labeled rRH5 (domain or fragment) |  | 12
